Experiments:
Test in all cases: receptor-Fc IP
[1] = biological target: T1, VEGFR-1-Fc (UniProt P17948 27-338)
T1 construct: domain: first three Ig domains; expressed in Drosophila S2 cells, purified on Protein A sepharose; also called VEGFR-1-Fc fusion protein; not shown: Fc fragment from the Signal-pIgPlus vector
Outline: (§1)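 Binding of ligand from sample supernatant measured by pentahistidine-antibody immunoprecipitation. IP mix: PBS with 1.5% BSA, 0.06% Tween 20, 3 μg/ml heparin and 400 ng/ml fusion protein, added 1:2 to sample supernatant.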

[2] = biological target: T2, VEGFR-2-Fc (UniProt P35968 20-322)
T2 construct: domain: first 3 Ig domains; conditioned supernatant of 293T cells; also called VEGFR-2-Fc fusion protein; not shown: Fc fragment of the pIg vector
Outline: as §1

[3] = biological target: T3, VEGFR-3-Fc (UniProt P35916 25-328)
T3 construct: domain: first three Ig domains; conditioned supernatant of 293T cells; also called VEGFR-3-Fc fusion protein; not shown: Fc fragment of the pIg vector
T3 sequence (looked up): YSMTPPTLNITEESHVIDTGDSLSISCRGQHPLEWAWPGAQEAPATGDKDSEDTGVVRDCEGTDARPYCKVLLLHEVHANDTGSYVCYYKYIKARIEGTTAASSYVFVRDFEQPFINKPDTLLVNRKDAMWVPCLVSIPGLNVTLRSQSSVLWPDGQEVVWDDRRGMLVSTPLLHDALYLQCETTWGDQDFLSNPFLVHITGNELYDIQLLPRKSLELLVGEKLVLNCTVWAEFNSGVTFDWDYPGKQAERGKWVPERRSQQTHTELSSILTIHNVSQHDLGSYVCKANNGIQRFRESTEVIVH
Outline: as §1

Measured: binding result

T1 sequence (P17948 27-338): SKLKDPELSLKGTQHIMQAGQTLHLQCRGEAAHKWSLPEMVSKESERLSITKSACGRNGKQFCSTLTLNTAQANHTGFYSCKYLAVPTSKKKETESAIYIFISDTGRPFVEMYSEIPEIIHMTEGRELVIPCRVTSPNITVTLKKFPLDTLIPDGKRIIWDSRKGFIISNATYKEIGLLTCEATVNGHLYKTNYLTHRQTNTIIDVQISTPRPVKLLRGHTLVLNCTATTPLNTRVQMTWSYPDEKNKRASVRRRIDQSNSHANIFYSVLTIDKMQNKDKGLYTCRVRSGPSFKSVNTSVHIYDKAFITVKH
T2 sequence (P35968 20-322): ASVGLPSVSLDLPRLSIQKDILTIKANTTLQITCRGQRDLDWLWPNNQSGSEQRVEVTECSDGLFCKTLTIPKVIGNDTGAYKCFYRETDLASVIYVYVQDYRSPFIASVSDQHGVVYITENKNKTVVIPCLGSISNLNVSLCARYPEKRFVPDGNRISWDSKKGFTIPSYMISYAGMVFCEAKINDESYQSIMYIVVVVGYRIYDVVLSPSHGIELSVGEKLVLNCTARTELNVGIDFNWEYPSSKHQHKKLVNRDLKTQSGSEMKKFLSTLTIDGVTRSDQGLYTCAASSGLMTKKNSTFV

B1: 13-14 (ligand)
chain: GQNHHEVVKFMDVYQRSYCHPIETLVDIFQEYPDEIEYIFKPPCVSVYRCGGCCNDEGLECMNTSTSYLSKTLFEITVPLSQGPKPVTISFANHTSCRCMSKLD
no binding: all assays above

B2: 14-13 (ligand)
chain: GQNHHEVVKFMDVYQRSYCHPIETLVDIFQEFGVATNTFFKPSCVPLMRCGGCCNDEGLECVPTEESNITMQIMRITVPLSQGPKPVTISFANHTSCRCMSKLD
no binding: all assays above

B3: 14-15 (ligand)
chain: GQNHHEVVKFMDVYQRSYCHPIETLVDIFQEFGVATNTFFKPSCVPLMRCGGCCNSEGLQCVPTEESNITMQIMRITVPLSQGPKPVTISFANHTSCRCMSKLD
no binding: all assays above

B4: 31-6 (ligand)
chain: GQNHHEVVKSIDNEWRKTQCMPIETLVDIFQEYPDEIEYIFKPSCVPLMRCGGCCNDEGLECMNTSTSYLSKTLFEIKPHQGQHIGEMSFANHTSCRCMSKLD
no binding: all assays above

B5: 72-1 (ligand)
chain: GQNHHEVVKSIDNEWRKTQCMPREVCIDVGKEFGVATNTFFKPPCVSVYRCGGCCNDEGLECVPTEESNITMQIMRIKPHQGQHIGEMSFLQHNKCECRPKKD
no binding: all assays above

B6: 72-3 (ligand)
chain: GQNHHEVVKSIDNEWRKTQCMPREVCIDVGKEFGVATNTFFKPPCVSVYRCGGCCNSEGLQCVPTEESNITMQIMRIKPHQGQHIGEMSFLQHNKCECRPKKD
no binding: all assays above

B7: 72-7 (ligand)
chain: GQNHHEVVKSIDNEWRKTQCMPREVCIDVGKEFGVATNTFFKPPCVSVYRCGGCCNSEGLQCVPTEESNITMQIMRIKPHQGQHIGEMSFANHTSCRCMSKL
no binding: all assays above

B8: 13-4 (ligand)
chain: GQNHHEVVKFMDVYQRSYCHPIETLVDIFQEYPDEIEYIFKPPCVSVYRCGGCCNSEGLQCMNTSTSYLSKTLFEIKPHQGQHIGEMSFLQHNKCECRPKKD
no binding: all assays above

B9: 24-5 (ligand)
chain: AHYNTEILKSIDNEWRKTQCMPREVCIDVGKEFGVATNTFFKPSCVPLMRCGGCCNDEGLECVPTEESNITMQIMRIKPHQGQHIGEMSFANHTSCRCMSKLD
no binding: all assays above

B10: 21-7 (ligand)
chain: AHYNTEILKSIDNEWRKTQCMPREVCIDVGKEYPDEIEYIFKPSCVPLMRCGGCCNSEGLQCVPTEESNITMQIMRIKPHQGQHIGEMSFANHTSCRCMSKLD
no binding: all assays above

B11: 23-5 (ligand)
chain: AHYNTEILKSIDNEWRKTQCMPREVCIDVGKEYPDEIEYIFKPPCVSVYRCGGCCNDEGLECVPTEESNITMQIMRIKPHQGQHIGEMSFANHTSCRCMSKLD
no binding: all assays above

B12: 52-5 (ligand)
chain: AHYNTEILKSIDNEWRKTQCMPIETLVDIFQEFGVATNTFFKPPCVSVYRCGGCCNDEGLECVPTEESNITMQIMRIKPHQGQHIGEMSFANHTSCRCMSKLD
no binding: all assays above

B13: 21-5 (ligand)
chain: AHYNTEILKSIDNEWRKTQCMPREVCIDVGKEYPDEIEYIFKPSCVPLMRCGGCCNDEGLECVPTEESNITMQIMRIKPHQGQHIGEMSFANHTSCRCMSKLD
no binding: all assays above

B14: 22-5 (ligand)
chain: AHYNTEILKSIDNEWRKTQCMPREVCIDVGKEFGVATNTFFKPPCVSVYRCGGCCNDEGLECVPTEESNITMQIMRIKPHQGQHIGEMSFANHTSCRCMSKLD
no binding: all assays above

B15: 22-7 (ligand)
chain: AHYNTEILKSIDNEWRKTQCMPREVCIDVGKEFGVATNTFFKPPCVSVYRCGGCCNSEGLQCVPTEESNITMQIMRIKPHQGQHIGEMSFANHTSCRCMSKLD
no binding: all assays above

B16: 24-7 (ligand)
chain: AHYNTEILKSIDNEWRKTQCMPREVCIDVGKEFGVATNTFFKPSCVPLMRCGGCCNSEGLQCVPTEESNITMQIMRIKPHQGQHIGEMSFANHTSCRCMSKLD
no binding: all assays above

B17: 74-5 (ligand)
chain: GQNHHEVVKSIDNEWRKTQCMPREVCIDVGKEFGVATNTFFKPSCVPLMRCGGCCNDEGLECVPTEESNITMQIMRIKPHQGQHIGEMSFANHTSCRCMSKLD
no binding: all assays above

B18: 54-5 (ligand)
chain: AHYNTEILKSIDNEWRKTQCMPIETLVDIFQEFGVATNTFFKPSCVPLMRCGGCCNDEGLECVPTEESNITMQIMRIKPHQGQHIGEMSFANHTSCRCMSKLD
no binding: all assays above

B19: 72-5 (ligand)
chain: GQNHHEVVKSIDNEWRKTQCMPREVCIDVGKEFGVATNTFFKPPCVSVYRCGGCCNDEGLECVPTEESNITMQIMRIKPHQGQHIGEMSFANHTSCRCMSKLD
no binding: all assays above

B20: 24-3 (ligand)
chain: AHYNTEILKSIDNEWRKTQCMPREVCIDVGKEFGVATNTFFKPSCVPLMRCGGCCNSEGLQCVPTEESNITMQIMRIKPHQGQHIGEMSFLQHNKCECRPKKD
no binding: all assays above

B21: 54-7 (ligand)
chain: AHYNTEILKSIDNEWRKTQCMPIETLVDIFQEFGVATNTFFKPSCVPLMRCGGCCNSEGLQCVPTEESNITMQIMRIKPHQGQHIGEMSFANHTSCRCMSKLD
no binding: all assays above

B22: 24-1 (ligand)
chain: AHYNTEILKSIDNEWRKTQCMPREVCIDVGKEFGVATNTFFKPSCVPLMRCGGCCNDEGLECVPTEESNITMQIMRIKPHQGQHIGEMSFLQHNKCECRPKKD
no binding: all assays above

B23: 74-7 (ligand)
chain: GQNHHEVVKSIDNEWRKTQCMPREVCIDVGKEFGVATNTFFKPSCVPLMRCGGCCNSEGLQCVPTEESNITMQIMRIKPHQGQHIGEMSFANHTSCRCMSKLD
no binding: all assays above

Reference: patent US20080058263A1 (published 2008)
